Results on 55 molecules are retold here after patent publication US20100279930A1 (published 2010).

Where two headings read alike, the source gives them in different places. No end group written: not given here.

Assay [1] deals with T1, human Y4 receptor (human, UniProt P50391 1-375). Briefly: 125I-PP displacement.
Assay [2] deals with T1, human Y4 receptor. The assay can be described thus: 125I-PP displacement. This is another data set of the same source.

T1 sequence (P50391 whole entry): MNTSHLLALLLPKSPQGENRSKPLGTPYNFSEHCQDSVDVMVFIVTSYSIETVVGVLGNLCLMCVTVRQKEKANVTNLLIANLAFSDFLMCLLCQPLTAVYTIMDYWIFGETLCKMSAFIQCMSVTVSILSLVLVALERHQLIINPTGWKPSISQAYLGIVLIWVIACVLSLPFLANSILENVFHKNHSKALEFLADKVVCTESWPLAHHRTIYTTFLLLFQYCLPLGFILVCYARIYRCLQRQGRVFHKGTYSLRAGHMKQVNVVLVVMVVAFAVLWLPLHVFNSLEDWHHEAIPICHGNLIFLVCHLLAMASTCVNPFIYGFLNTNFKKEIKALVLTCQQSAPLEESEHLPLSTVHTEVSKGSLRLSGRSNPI

B1: 7115 (peptide)
chain: APLEPVYPGDNATPEQMAQYAADLRRYINCLTRPRY
As a reminder, the IC50 is the concentration that gives 50% inhibition. A lower IC50 goes with inhibition by little substance. As for B1, the 50% inhibitory concentration (IC50) in the assay with human Y4 receptor [1] is 229 pM.

B2: 7231 (peptide)
chain: APLEPKYPGDNATPEQMAQYAAALRRYINKLTRPRY
For B2, in the assay with human Y4 receptor [1], the half-inhibitory concentration (IC50) stood at 89 pM.

B3: 7230 (peptide)
chain: APLEPKYPGDNATPEQMAQYAAALRRYINMLTRPRY
B3 showed an IC50 with human Y4 receptor [1] of 210 pM.

B4: 7160 (peptide)
chain: APLEPVYPGDNATPEQMAHYAAELRRYINMLTRPRY
For B4, in the assay with human Y4 receptor [1], the IC50 stood at 150 pM. This IC50 and that of the molecule before are within 1.5-fold of each other.

B5: 7165 (peptide)
chain: APLEPVYPGDDATPEQMAHYAAELRRYINMLTRPRY
The molecule B5 yielded a half-inhibitory concentration (IC50) with human Y4 receptor [1] of 183 pM.

B6: 7124 (peptide)
chain: APLEPVYPGDNATPEEIVKYFIELRRYINMLTRPRY
B6: the IC50 in the assay with human Y4 receptor [1] is 310 pM.

B7: 7109 (peptide)
chain: APLEPVYPGDNATPEELVKYYASLRRYINMLTRPRY
The molecule B7 came in with an IC50 in the assay with human Y4 receptor [1] of 83 pM.

B8: 7163 (peptide)
chain: APLEPVYPGDNATPEELVKYAAELRRYINMLTRPRY
In the assay with human Y4 receptor [1], B8 gave an IC50 of 146 pM.

B9: 7133 (peptide)
chain: PAPLEPVYPGDDATPQEIVHYFIELRRYINTLTRPRY
The molecule B9 gave an IC50 with human Y4 receptor [1] of 173 pM.

B10: 4059966 (peptide)
chain: PAPLEPHYPGDNATPEQLARYYSELRRYINKLTRPRY
With B10, the IC50 with human Y4 receptor [2] worked out at 53 pM.

B11: 4059955 (peptide)
chain: AAPLEPHYPGDNATPEQMARYYSELRRYINKLTRPRY
As to B11, the IC50 with human Y4 receptor [2] was 44 pM.

B12: 7148 (peptide)
chain: AAPLEPFYPGDDATPQQIAHYAAELRRYINTLTRPRY
In turn, B12 had a 50% inhibitory concentration (IC50) in the assay with human Y4 receptor [1] of 160 pM.

B13: 7144 (peptide)
chain: AAPLEPFYPGDDATPQQMAHYAAELRRYINMLTRPRY
Molecule B13 displayed an IC50 in the assay with human Y4 receptor [1] of 216 pM.

B14: 7147 (peptide)
chain: AAPLEPFYPGDDATPQQMAHYAAELRRYINTLTRPRY
Take B14: the IC50 with human Y4 receptor [1] came out at 148 pM.

B15: 7146 (peptide)
chain: HAPLEPFYPGDDATPQQMAHYAAELRRYINMLTRPRY
The molecule B15 showed a half-inhibitory concentration (IC50) with human Y4 receptor [1] of 149 pM. The IC50 values of the last two molecules are within 1.5-fold of each other.

B16: 7158 (peptide)
chain: AAPLEPVYPGDNATPEQMAHYAAELRRYINTLTRPRY
In turn, B16 returned a 50% inhibitory concentration (IC50) with human Y4 receptor [1] of 146 pM. The IC50 values of the last two molecules are within 1.5-fold of each other.

B17: 6866 (peptide)
chain: AAPLEPVYPGDDATPQQMAQYAAELRRYINMLTRPRY
Consider B17, for which the IC50 with human Y4 receptor [1] was determined as 170 pM.

B18: 4060143 (peptide)
chain: PAPLEPRYPGDNATPEEMAKYAAELRRYINKLTRPRY
B18 gave an IC50 with human Y4 receptor [2] of 95 pM.

B19: 4059935 (peptide)
chain: GAPLEPHYPGDNATPEEMAKYASELRRYINKLTRPRY
On to B19, for which the half-inhibitory concentration (IC50) with human Y4 receptor [2] worked out at 81 pM.

B20: 4059934 (peptide)
chain: PAPLEPHYPGDNATPEEMAKYATELRRYINKLTRPRY
As for B20, in the assay with human Y4 receptor [2], the IC50 came to 108 pM.

B21: 4059932 (peptide)
chain: GAPLEPHYPGDNATPEEMAKYATELRRYINKLTRPRY
Regarding B21, the IC50 with human Y4 receptor [2] amounted to 85 pM. The IC50 values of the last two molecules are within 1.5-fold of each other.

B22: 4059947 (peptide)
chain: GAPLEPHYPGDNATPEEMAKYAAELRRYINKVTRPRY
Molecule B22 showed an IC50 in the assay with human Y4 receptor [2] of 66 pM.

B23: compound of SEQ ID NO:171 (code 7218) (peptide)
peptide: AAPLEPVYPGDNATPEQMAQYAADLRRYINKLTRPRY
modifications: ends and bridges not checked
In turn, B23 displayed an IC50 in the assay with human Y4 receptor [1] of 150 pM.

B24: 7219 (peptide)
chain: DAPLEPVYPGDNATPEQMAQYAADLRRYINKLTRPRY
B24 displayed an IC50 with human Y4 receptor [1] of 220 pM.

B25: 7117 (peptide)
chain: CAPLEPVYPGDNATPEQMAQYAADLRRYINCLTRPRY
B25 returned an IC50 in the assay with human Y4 receptor [1] of 351 pM.

B26: 7220 (peptide)
chain: PAPLEPVYPGDNATPEQMAQYAADLRRYINKLTRPRY
In the case of B26, the half-maximal inhibitory concentration (IC50) in the assay with human Y4 receptor [1] was 100 pM.

B27: 7216 (peptide)
chain: DAPLEPVYPGDNATPEQMAQYAAALRRYINKLTRPRY
As for B27, the IC50 with human Y4 receptor [1] is 109 pM.

B28: 7217 (peptide)
chain: PAPLEPVYPGDNATPEQMAQYAAALRRYINKLTRPRY
On to B28, for which, in the assay with human Y4 receptor [1], the IC50 came out at 66 pM.

B29: 7161 (peptide)
chain: PAPLEPVYPGDNATPEQMAHYAAELRRYINMLTRPRY
For the molecule B29, the IC50 with human Y4 receptor [1] amounted to 188 pM.

B30: 7143 (peptide)
chain: PAPLEPFYPGDNATPEQMAHYAADLRRYINTLTRPRY
In turn, B30 came in with an IC50 with human Y4 receptor [1] of 188 pM.

B31: 4060135 (peptide)
chain: AAPLEPVYPGDNATPEELARYAAELRRYINKLTRPRY
B31 had an IC50 with human Y4 receptor [2] of 197 pM.

B32: 7162 (peptide)
chain: GAPLEPVYPGDNATPEQMAHYAAELRRYINMLTRPRY
Turning to B32, the 50% inhibitory concentration (IC50) with human Y4 receptor [1] amounted to 219 pM.

B33: compound of SEQ ID NO:168 (Ala 0, Ala 23 and Lys 30, code 7215) (peptide)
peptide: AAPLEPVYPGDNATPEQMAQYAAALRRYINKLTRPRY
Turning to B33, the IC50 with human Y4 receptor [1] worked out at 57 pM.

B34: 7123 (peptide)
chain: PAPLEPVYPGDNATPEEINHYYSALRRYINMLTRPRY
In the assay with human Y4 receptor [1], B34 had an IC50 of 90 pM.

B35: 7122 (peptide)
chain: APLEPVYPGDNATPEEINHYYSALRRYINMLTRPRY
In the case of B35, the IC50 with human Y4 receptor [1] was found to be 118 pM.

B36: 7111 (peptide)
chain: APLEPVYPGDNATPEELVKYYSALRRYINLLTRPRY
In the case of B36, the concentration for half-maximal inhibition (IC50) with human Y4 receptor [1] worked out at 77 pM.

B37: 7103 (peptide)
chain: APLEPVYPGDNATPEELVKYYSALRHYINMLTRPRY
On to B37, for which the IC50 with human Y4 receptor [1] stood at 200 pM.

B38: 7125 (peptide)
chain: APLEPVYPGDNATPEEIVHYFIELRRYINMLTRPRY
In the assay with human Y4 receptor [1], B38 gave an IC50 of 100 pM.

B39: 7135 (peptide)
chain: APLEPVYPGDDATPQQIAHYYSELRRYINMLTRPRY
In turn, B39 came in with an IC50 in the assay with human Y4 receptor [1] of 180 pM.

B40: 7136 (peptide)
chain: APLEPVYPGDDATPQQMAHYYSELRRYINMLTRPRY
B40 returned an IC50 with human Y4 receptor [1] of 149 pM.

B41: 7149 (peptide)
chain: APLEPEYPGDDATPQQMAHYAAELRRYINMLTRPRY
B41 displayed an IC50 in the assay with human Y4 receptor [1] of 119 pM.

B42: 7112 (peptide)
chain: AAPLEPVYPGDNATPEELVKYYSALRRYINLLTRPRY
B42: the IC50 with human Y4 receptor [1] worked out at 95 pM.

B43: 7102 (peptide)
chain: GAPLEPVYPGDNATPEELVKYYSALRRYINMLTRPRY
As to B43, the IC50 in the assay with human Y4 receptor [1] stood at 114 pM.

B44: 7104 (peptide)
chain: PAPLEPVYPGDNATPEELVKYYSALRHYINMLTRPRY
In the assay with human Y4 receptor [1], B44 yielded an IC50 of 225 pM.

B45: 7108 (peptide)
chain: PAPLEPVYPGDNATPEELVKYYASLRHYINMLTRPRY
Take B45: the IC50 in the assay with human Y4 receptor [1] came out at 250 pM.

B46: 4060210 (peptide)
chain: GAPLEPTYPGDDATPEQLAKYAAELRRYINKLTRPRY
The molecule B46 yielded an IC50 with human Y4 receptor [2] of 106 pM.

B47: 7101 (peptide)
chain: PLEPVYPGDNATPEELVKYYSALRRYINMLTRPRY
The molecule B47 returned an IC50 with human Y4 receptor [1] of 69 pM.

B48: 4059861 (peptide)
chain: HAPLKPKAPGDNATPEQLAKYAAELRRYINKLTRPRY
Molecule B48 displayed an IC50 with human Y4 receptor [2] of 100 pM.

B49: 7137 (peptide)
chain: PAPLEPVYPGDDATPQQMAHYYSELRRYINMLTRPRY
Turning to B49, in the assay with human Y4 receptor [1], the IC50 was 72 pM.

B50: 7138 (peptide)
chain: AAPLEPVYPGDDATPQQMAHYYSELRRYINMLTRPRY
In the assay with human Y4 receptor [1], B50 registered an IC50 of 130 pM. This IC50 lies about 1.8-fold higher than the previous one.

B51: 7139 (peptide)
chain: HAPLEPVYPGDDATPQQMAHYYSELRRYINMLTRPRY
For the molecule B51, the IC50 in the assay with human Y4 receptor [1] came out at 137 pM.

B52: 7164 (peptide)
chain: APLEPVYPGDNATPEQNLAHYAAELRRYINMLTRPRY
For the molecule B52, the half-inhibitory concentration (IC50) with human Y4 receptor [1] was determined as 223 pM. This IC50 is about 1.6-fold higher than that of the molecule before.

B53: 4060130 (peptide)
chain: GAPLEPEYPGDNATPEQKARYAAALRRYINHLTRPRY
In turn, B53 came in with an IC50 with human Y4 receptor [2] of 72 pM.

B54: 4059977 (peptide)
chain: GAPLEPEAPGDNATPEQMAKYAAALRRYINKLTRPRY
In turn, B54 showed an IC50 with human Y4 receptor [2] of 95 pM.

B55: 4060274 (peptide)
chain: GAPLEPEYPGDNATPEQKAKYAAALRRYINHLTRPRY
With B55, the IC50 in the assay with human Y4 receptor [2] came out at 128 pM.
